The text below walks through data of publication PMC5738438, “Dynamic intramolecular regulation of the histone chaperone nucleoplasmin controls histone binding and release” (Nature Communications, 2017).

Data set [1] deals with the molecule itself. The experiment in a line: SEC-SAXS; complex of core+A2 and H2A/H2B purified by SEC, 4.83 mg/mL on Superdex 200 PC3.2/300, 5 mM DTT; Porod volume.
Another data set has as its target H2A/H2B dimer (Xenopus, UniProt P06897 2-123; P02281 1-126). Kind of data set: other fluorescence titration; equilibrium tryptophan (W125) fluorescence, 340/360 ratio; tail or peptide 0.5 µM, histones titrated; 20 mM Tris pH 7.6, 150 mM NaCl, 1 mM EDTA, 1 mM DTT, 0.01% NP-40; single-site model. The settings on record: both partners purified.

B1: Npm core+A2 truncation (1–145) (domain or fragment)
chain: ASTASNTSKVEKPVSLIWGCELNEQNKTFAFKIEDEEEKCEHQLALRTVCLGDKAKDEFHIVEIVTQEEGKEKPVPIASLKPSILPMATMVGIELTPPVTFRLKAGSGPVYISGQHVAMEEDYSWAEEEDEGEEEEEEEEDPESP
Consider B1, for which the stoichiometry N (in general, a count of units in the complex or per binding partner) in data set [1] stood at 5.

MEEDYSWAEEEDEGEEEEEEEEDPESP [A2 peptide (residues 119–145)]: the Kd – broadly, the equilibrium constant for the complex coming apart – with H2A/H2B dimer is below 50 nM.
